From patent US20250161408A1, “PEPTIDIC INHIBITORS OF AMYLOID SELF- AND CROSS-ASSEMBLY” (published 2025)
Non-standard residues stand in square brackets, D forms with d. NMeF = CN[C@@H](Cc1ccccc1)C(=O)O; NMeL = CN[C@@H](CC(C)C)C(=O)O; NMeV = CN[C@H](C(=O)O)C(C)C; Nle = CCCC[C@H](N)C(=O)O

Key:
[1] = biological target: T1, Fluos-IAPP (human, UniProt P10997, N-terminal fluorescein); assay: fluorescence spectroscopic titration of Fluos-IAPP (5 nM, pH 7.4) with the ACM; app. KD
T1 peptide: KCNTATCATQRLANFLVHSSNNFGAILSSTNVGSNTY
Protocol: On the right side of each figure panel, the corresponding binding curves are shown; data are means±SD from 3 binding curves. […] KDs (means±SD from 3 binding curves) are in Table 1.
(§1) Fluorescence spectroscopic studies were performed with a Jasco FP-6500 fluorescence spectrophotometer. Briefly, excitation was at 492 nm and spectra were measured between 500 and 600 nm. All titrations were performed in freshly made solutions of synthetic N-terminal fluorescently labeled peptide (5 nM) and various amounts of unlabeled peptide in 10 mM sodium phosphate buffer, pH 7.4 (1% HFIP) within 2-5 min following solution preparation. […] Apparent binding affinities (app. KDs) were estimated by using 1/1 binding models. However, due to the high self-assembly propensities of involved peptides more complex models might also apply. […] KDs are means (±SD) from three binding curves derived from three independent titration assays.

[2] = biological target: FITC-Aβ42 (Homo sapiens (Human), UniProt P05067, N-terminal fluorescein-isothiocyanate-β-Ala); assay: fluorescence spectroscopic titration of FITC-Aβ42 (5 nM, pH 7.4) with the ACM; app. KD
Protocol: Fluorescence spectroscopic studies were performed with a Jasco FP-6500 fluorescence spectrophotometer. Briefly, excitation was at 492 nm and spectra were measured between 500 and 600 nm. All titrations were performed in freshly made solutions of synthetic N-terminal fluorescently labeled peptide (5 nM) and various amounts of unlabeled peptide in 10 mM sodium phosphate buffer, pH 7.4 (1% HFIP) within 2-5 min following solution preparation. […] Apparent binding affinities (app. KDs) were estimated by using 1/1 binding models. However, due to the high self-assembly propensities of involved peptides more complex models might also apply.

[3] = biological target: T2, Fluos-Nle3-VF (N-terminal 5,6-carboxyfluorescein; X = norleucine (Nle); N-methyl on Val18 and Phe20); assay: self-assembly: fluorescence spectroscopic titration of Fluos-Nle3-VF (5 nM) with Nle3-VF; app. KD
T2 peptide: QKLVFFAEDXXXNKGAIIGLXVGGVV
Protocol: as §1

B1: F3-VF (peptide)
peptide: H-QKL[NMeV]F[NMeF]AEDFFFNKGAIIGL[Nle]VGGVV-OH
SMILES: CCCC[C@H](NC(=O)[C@H](CC(C)C)NC(=O)CNC(=O)[C@@H](NC(=O)[C@@H](NC(=O)[C@H](C)NC(=O)CNC(=O)[C@H](CCCCN)NC(=O)[C@H](CC(N)=O)NC(=O)[C@H](Cc1ccccc1)NC(=O)[C@H](Cc1ccccc1)NC(=O)[C@H](Cc1ccccc1)NC(=O)[C@H](CC(=O)O)NC(=O)[C@H](CCC(=O)O)NC(=O)[C@H](C)NC(=O)[C@H](Cc1ccccc1)N(C)C(=O)[C@H](Cc1ccccc1)NC(=O)[C@H](C(C)C)N(C)C(=O)[C@H](CC(C)C)NC(=O)[C@H](CCCCN)NC(=O)[C@@H](N)CCC(N)=O)[C@@H](C)CC)[C@@H](C)CC)C(=O)N[C@H](C(=O)NCC(=O)NCC(=O)N[C@H](C(=O)N[C@H](C(=O)O)C(C)C)C(C)C)C(C)C
- Kd [1]: 15 nM
- Kd [2]: 161 nM

B2: Nle3-LF (peptide)
peptide: H-QK[NMeL]V[NMeF]FAED[Nle][Nle][Nle]NKGAIIGL[Nle]VGGVV-OH
SMILES: CCCC[C@H](NC(=O)[C@H](CC(=O)O)NC(=O)[C@H](CCC(=O)O)NC(=O)[C@H](C)NC(=O)[C@H](Cc1ccccc1)NC(=O)[C@H](Cc1ccccc1)N(C)C(=O)[C@@H](NC(=O)[C@H](CC(C)C)N(C)C(=O)[C@H](CCCCN)NC(=O)[C@@H](N)CCC(N)=O)C(C)C)C(=O)N[C@@H](CCCC)C(=O)N[C@@H](CCCC)C(=O)N[C@@H](CC(N)=O)C(=O)N[C@@H](CCCCN)C(=O)NCC(=O)N[C@@H](C)C(=O)N[C@H](C(=O)N[C@H](C(=O)NCC(=O)N[C@@H](CC(C)C)C(=O)N[C@@H](CCCC)C(=O)N[C@H](C(=O)NCC(=O)NCC(=O)N[C@H](C(=O)N[C@H](C(=O)O)C(C)C)C(C)C)C(C)C)[C@@H](C)CC)[C@@H](C)CC
- Kd [1]: 55.4 nM
- Kd [2]: 11.1 nM

B3: L3-VF (peptide)
peptide: H-QKL[NMeV]F[NMeF]AEDLLLNKGAIIGL[Nle]VGGVV-OH
SMILES: CCCC[C@H](NC(=O)[C@H](CC(C)C)NC(=O)CNC(=O)[C@@H](NC(=O)[C@@H](NC(=O)[C@H](C)NC(=O)CNC(=O)[C@H](CCCCN)NC(=O)[C@H](CC(N)=O)NC(=O)[C@H](CC(C)C)NC(=O)[C@H](CC(C)C)NC(=O)[C@H](CC(C)C)NC(=O)[C@H](CC(=O)O)NC(=O)[C@H](CCC(=O)O)NC(=O)[C@H](C)NC(=O)[C@H](Cc1ccccc1)N(C)C(=O)[C@H](Cc1ccccc1)NC(=O)[C@H](C(C)C)N(C)C(=O)[C@H](CC(C)C)NC(=O)[C@H](CCCCN)NC(=O)[C@@H](N)CCC(N)=O)[C@@H](C)CC)[C@@H](C)CC)C(=O)N[C@H](C(=O)NCC(=O)NCC(=O)N[C@H](C(=O)N[C@H](C(=O)O)C(C)C)C(C)C)C(C)C
- Kd [1]: 77.3 nM
- Kd [2]: 38 nM

B4: F3-LF (peptide)
peptide: H-QK[NMeL]V[NMeF]FAEDFFFNKGAIIGL[Nle]VGGVV-OH
SMILES: CCCC[C@H](NC(=O)[C@H](CC(C)C)NC(=O)CNC(=O)[C@@H](NC(=O)[C@@H](NC(=O)[C@H](C)NC(=O)CNC(=O)[C@H](CCCCN)NC(=O)[C@H](CC(N)=O)NC(=O)[C@H](Cc1ccccc1)NC(=O)[C@H](Cc1ccccc1)NC(=O)[C@H](Cc1ccccc1)NC(=O)[C@H](CC(=O)O)NC(=O)[C@H](CCC(=O)O)NC(=O)[C@H](C)NC(=O)[C@H](Cc1ccccc1)NC(=O)[C@H](Cc1ccccc1)N(C)C(=O)[C@@H](NC(=O)[C@H](CC(C)C)N(C)C(=O)[C@H](CCCCN)NC(=O)[C@@H](N)CCC(N)=O)C(C)C)[C@@H](C)CC)[C@@H](C)CC)C(=O)N[C@H](C(=O)NCC(=O)NCC(=O)N[C@H](C(=O)N[C@H](C(=O)O)C(C)C)C(C)C)C(C)C
- Kd [1]: 37.6 nM
- Kd [2]: 431 nM

B5: Nle3-VF (peptide)
peptide: H-QKL[NMeV]F[NMeF]AED[Nle][Nle][Nle]NKGAIIGL[Nle]VGGVV-OH
SMILES: CCCC[C@H](NC(=O)[C@H](CC(=O)O)NC(=O)[C@H](CCC(=O)O)NC(=O)[C@H](C)NC(=O)[C@H](Cc1ccccc1)N(C)C(=O)[C@H](Cc1ccccc1)NC(=O)[C@H](C(C)C)N(C)C(=O)[C@H](CC(C)C)NC(=O)[C@H](CCCCN)NC(=O)[C@@H](N)CCC(N)=O)C(=O)N[C@@H](CCCC)C(=O)N[C@@H](CCCC)C(=O)N[C@@H](CC(N)=O)C(=O)N[C@@H](CCCCN)C(=O)NCC(=O)N[C@@H](C)C(=O)N[C@H](C(=O)N[C@H](C(=O)NCC(=O)N[C@@H](CC(C)C)C(=O)N[C@@H](CCCC)C(=O)N[C@H](C(=O)NCC(=O)NCC(=O)N[C@H](C(=O)N[C@H](C(=O)O)C(C)C)C(C)C)C(C)C)[C@@H](C)CC)[C@@H](C)CC
- Kd [1]: 69.5 nM
- Kd [2]: 14.5 nM
- Kd [3]: 51.9 nM

B6: L3-LF (peptide)
peptide: H-QK[NMeL]V[NMeF]FAEDLLLNKGAIIGL[Nle]VGGVV-OH
SMILES: CCCC[C@H](NC(=O)[C@H](CC(C)C)NC(=O)CNC(=O)[C@@H](NC(=O)[C@@H](NC(=O)[C@H](C)NC(=O)CNC(=O)[C@H](CCCCN)NC(=O)[C@H](CC(N)=O)NC(=O)[C@H](CC(C)C)NC(=O)[C@H](CC(C)C)NC(=O)[C@H](CC(C)C)NC(=O)[C@H](CC(=O)O)NC(=O)[C@H](CCC(=O)O)NC(=O)[C@H](C)NC(=O)[C@H](Cc1ccccc1)NC(=O)[C@H](Cc1ccccc1)N(C)C(=O)[C@@H](NC(=O)[C@H](CC(C)C)N(C)C(=O)[C@H](CCCCN)NC(=O)[C@@H](N)CCC(N)=O)C(C)C)[C@@H](C)CC)[C@@H](C)CC)C(=O)N[C@H](C(=O)NCC(=O)NCC(=O)N[C@H](C(=O)N[C@H](C(=O)O)C(C)C)C(C)C)C(C)C
- Kd [1]: 143 nM
- Kd [2]: 2.6 nM
